B1: Chaperone protein TorD (Escherichia coli (strain K12)), P36662 (parent)
chain: MTTLTAQQIACVYAWLAQLFSRELDDEQLTQIASAQMAEWFSLLKSEPPLTAAVNELENRIATLTVRDDARLELAADFCGLFLMTDKQAALPYASAYKQDEQEIKRLLVEAGMETSGNFNEPADHLAIYLELLSHLHFSLGEGTVPARRIDSLRQKTLTALWQWLPEFVARCRQYDSFGFYAALSQLLLVLVECDHQNR
B2: Trimethylamine-N-oxide reductase 1 (Escherichia coli (strain K12)), P33225 (parent)
chain: MNNNDLFQASRRRFLAQLGGLTVAGMLGPSLLTPRRATAAQAATDAVISKEGILTGSHWGAIRATVKDGRFVAAKPFELDKYPSKMIAGLPDHVHNAARIRYPMVRVDWLRKRHLSDTSQRGDNRFVRVSWDEALDMFYEELERVQKTHGPSALLTASGWQSTGMFHNASGMLAKAIALHGNSVGTGGDYSTGAAQVILPRVVGSMEVYEQQTSWPLVLQNSKTIVLWGSDLLKNQQANWWCPDHDVYEYYAQLKAKVAAGEIEVISIDPVVTSTHEYLGREHVKHIAVNPQTDVPLQLALAHTLYSENLYDKNFLANYCVGFEQFLPYLLGEKDGQPKDAAWAEKLTGIDAETIRGLARQMAANRTQIIAGWCVQRMQHGEQWAWMIVVLAAMLGQIGLPGGGFGFGWHYNGAGTPGRKGVILSGFSGSTSIPPVHDNSDYKGYSSTIPIARFIDAILEPGKVINWNGKSVKLPPLKMCIFAGTNPFHRHQQINRIIEGLRKLETVIAIDNQWTSTCRFADIVLPATTQFERNDLDQYGNHSNRGIIAMKQVVPPQFEARNDFDIFRELCRRFNREEAFTEGLDEMGWLKRIWQEGVQQGKGRGVHLPAFDDFWNNKEYVEFDHPQMFVRHQAFREDPDLEPLGTPSGLIEIYSKTIADMNYDDCQGHPMWFEKIERSHGGPGSQKYPLHLQSVHPDFRLHSQLCESETLRQQYTVAGKEPVFINPQDASARGIRNGDVVRVFNARGQVLAGAVVSDRYAPGVARIHEGAWYDPDKGGEPGALCKYGNPNVLTIDIGTSQLAQATSAHTTLVEIEKYNGTVEQVTAFNGPVEMVAQCEYVPASQVKS
partner: B1 chain

The variants in the first assay derive from B1. The following applies: with tora_ecoli torA.
On to F180L, for which the “effect of a mutation on the interaction” value is reported as “increasing interaction”. Same read-out and setting: as for Q7L, the entry is “increasing interaction”; as for L189Q, “increasing interaction”.

The variants in another assay derive from B1. To be noted: with tora_ecoli torA. This is another data set of the same source.
As to F180L, the “effect of a mutation on the interaction” value is “decreasing interaction”.

The variants in another assay derive from B1. The following applies: with tora_ecoli torA. This is another data set of the same source.
As for L189Q, the “effect of a mutation on the interaction” value is listed as “decreasing interaction”.

In another assay the parent is B1. To be noted: with tora_ecoli torA. The source holds these as a separate data set.
For Q186L, the “effect of a mutation on the interaction” value was “increasing interaction”.

The variants in the next assay derive from B2. To be noted: with tord_ecoli torD.
As for L31Q, the “effect of a mutation on the interaction” value was “disrupting interaction”.

In another assay the parent is B2. To be noted: with tord_ecoli torD. This is another data set of the same source.
Consider L31Q, for which the “effect of a mutation on the interaction” value was “decreasing interaction”.

The variants in another assay derive from B2. To be noted: with tord_ecoli torD. The source holds these as a separate data set.
In the case of G28Q, the “effect of a mutation on the interaction” value is recorded as “decreasing interaction”.

The variants in another assay derive from B2. The following applies: with tord_ecoli torD. The source holds these as a separate data set.
As for G19Q, the “effect of a mutation on the interaction” value is given as “decreasing interaction”.

In a further assay the parent is B2. The following applies: with tord_ecoli torD. This is another data set of the same source.
T22Q: the “effect of a mutation on the interaction” value is “increasing interaction”.

The next assay covers variants of B2. The following applies: with tord_ecoli torD. The source holds these as a separate data set.
Take L27Q: the “effect of a mutation on the interaction” value is on record as “disrupting interaction”.

In another assay the parent is B2. The following applies: with tord_ecoli torD. This is another data set of the same source.
In the case of L32Q, the “effect of a mutation on the interaction” value is “disrupting interaction”.

Another assay covers variants of B2. The following applies: with tord_ecoli torD. This is another data set of the same source.
V23Q: the “effect of a mutation on the interaction” value is reported as “decreasing interaction”.

The record behind these values is IntAct's records for PubMed 19013157.
